Assay results from article PMC9838529, “The neoepitope of the complement C5b-9 Membrane Attack Complex is formed by proximity of adjacent ancillary regions of C9” (Communications Biology, 2023).

Experiments:
[1] = biological target: the molecule itself; experiment: SEC; analytical size exclusion (Superdex 200 Increase 5/150 GL) of C9 after the polyC9 reaction (10 mM HEPES pH 7.2, 50 mM NaCl, overnight at 37 °C); oligomer in the void volume (~1.2 mL), monomer at ~2.1 mL
[2] = biological target: T1, whole MAC (C5b6, C7, C8αβγ, human C9) formed on liposomes (Homo sapiens); experiment: far-Western, overlay or dot blot; slot immunoblot of MAC formed on liposomes from C5b6 (1 to 16.8 nM), C7 30 nM, C8 30 nM, C9 7 nM; probed with aE11; settings: both partners purified
T1 construct: C5b of C5b6: beta chain of complement C5; C5b of C5b6: alpha' chain of complement C5 (alpha chain without C5a); complement component C6 of C5b6; complement component C7; complement component C8 alpha chain; complement component C8 beta chain; complement component C8 gamma chain; complement component C9, human, wild type, as in m8; oligomeric in the MAC; also called C5b-9; oligomeric human C9 …

[3] = biological target: T2, polyC9 (in vitro homo-oligomerised human C9, wild type) (human); experiment: SPR; aE11 IgG amine-coupled to a CM5 chip (~700 RU), polyC9 as analyte; Biacore T200, 25 °C; 10 mM HEPES-NaOH pH 7.2, 150 mM NaCl, 1 mM EDTA, 0.005% P20; multi-cycle kinetics; maximum response as relative measure; one-to-one model disregarding multivalency; settings: both partners purified
T2 construct: complement component C9, human, wild type, cloned in pSecTag2A; Tag-less purification; also called oligomeric C9; wild type oligomeric C9; source: Expi293F, purified (DEAE, CHT, SEC); oligomerised by incubating 1 mg/mL C9 overnight at 37 °C; copies: 22
T2 sequence (chain, as listed by the source): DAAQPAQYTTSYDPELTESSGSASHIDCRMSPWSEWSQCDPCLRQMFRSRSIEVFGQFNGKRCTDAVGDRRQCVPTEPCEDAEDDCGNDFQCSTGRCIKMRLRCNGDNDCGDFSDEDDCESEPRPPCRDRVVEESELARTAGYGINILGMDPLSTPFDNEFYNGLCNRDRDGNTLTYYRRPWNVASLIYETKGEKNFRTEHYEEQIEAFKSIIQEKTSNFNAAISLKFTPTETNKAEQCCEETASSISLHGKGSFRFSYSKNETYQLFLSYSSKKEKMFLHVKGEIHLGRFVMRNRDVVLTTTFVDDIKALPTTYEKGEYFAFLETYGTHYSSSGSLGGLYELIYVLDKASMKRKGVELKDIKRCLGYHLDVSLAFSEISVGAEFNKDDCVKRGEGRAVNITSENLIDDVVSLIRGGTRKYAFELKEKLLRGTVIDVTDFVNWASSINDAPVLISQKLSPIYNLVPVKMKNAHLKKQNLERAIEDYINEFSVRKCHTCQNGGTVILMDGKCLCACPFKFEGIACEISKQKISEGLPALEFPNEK

T1 sequence (P02748 22-559): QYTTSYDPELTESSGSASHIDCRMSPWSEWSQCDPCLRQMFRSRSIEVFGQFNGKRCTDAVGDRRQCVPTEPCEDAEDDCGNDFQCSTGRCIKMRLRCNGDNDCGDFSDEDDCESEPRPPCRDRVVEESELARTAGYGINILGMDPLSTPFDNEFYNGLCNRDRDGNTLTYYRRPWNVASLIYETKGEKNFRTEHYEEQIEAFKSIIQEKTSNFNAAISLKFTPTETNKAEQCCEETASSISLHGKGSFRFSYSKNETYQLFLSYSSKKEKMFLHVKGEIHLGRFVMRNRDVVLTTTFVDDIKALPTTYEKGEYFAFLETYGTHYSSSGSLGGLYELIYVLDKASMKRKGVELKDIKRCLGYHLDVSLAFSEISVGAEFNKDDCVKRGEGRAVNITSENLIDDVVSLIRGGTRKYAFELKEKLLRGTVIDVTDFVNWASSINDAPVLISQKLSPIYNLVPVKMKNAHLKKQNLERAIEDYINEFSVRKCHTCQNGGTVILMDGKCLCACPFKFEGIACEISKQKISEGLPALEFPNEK

Binder | binding result [1] | binding result [2] | koff [3] [s⁻¹]
human complement C9 R65Q/V68E/P72E (natural protein, complement component C9, human, human-to-murine triple mutant; also called triple mutant; source: Expi293F, purified tag-less (anion exchange, CHT, SEC)) not shown | binds | – | –
human complement C9 V68E (natural protein, complement component C9, human, human-to-murine point mutant; source: Expi293F, purified tag-less (anion exchange, CHT, SEC)) not shown | binds | – | –
aE11 IgG (antibody, V domains shown, heavy chain of mouse monoclonal aE11; variable region as the heavy chain of m1 in PDB 8DE6; light chain (kappa) of mouse monoclonal aE11; variable region as the light chain of m1 in PDB 8DE6; also called monoclonal aE11; full aE11 IgG; source: purified from hybridoma supernatant by protein G chromatography) VH: QVQLKESGPGLVAPSQSLSITCTVSGFSLTVYGVNWIRQPPGKGLEWLGMIWGDGSTDYNSALKSRLSITKDNSKSQVFLKMNSLQTDDTARYYCARDRSYGGSSAWFGYWGQGTLVTVSA VL: DIQMTQTTSSLSASLGDRVTISCRASHDISNYLNWYQQKPDGTLKLLIYYTSRLHSGVPSRFSGSGSGTDYSLTISNLEQEDVATYFCQQGNYLPYTFGGGTKLEIK | – | binds | ~1e-06
